Laboratory results from patent US20110028686A1 (published 2011).

What was measured:
Assay in all cases: fluorescence polarization
[1] = target: pP53-01
[2] = target: pP53-03
[3] = target: pP53-02
[4] = target: pP53-04

Kd [1]: 2.8 µM
Kd [2]: 0.546 µM
Kd [3]: 0.766 µM
Kd [4]: 0.334 µM
B1: GST-MDM2 (other)
chain: MCNTNMSVPTDGAVTTSQIPASEQETLVRPKPLLLKLLKSVGAQKDTYTMKEVLFYLGQYIMTKRLYDEKQQHIVYCSNDLLGDLFGVPSFSVKEHRKIYTMIYRNLVVVNQQESSDSGTSVSENRCHLEGGSDQKDLVQELQEEKPSSSHLVSRPSTSSRRRAISETEENSDELSGERQRKRHKSDS
